B1: CLK3 (parent)
chain: FGEDYYGPSRSRHRRRSRERGPYR

Variants of: B1
Assay: protein stability index of a GFP-peptide fusion (GPS, HEK-293T) (PSI 1-6); higher = more stable
Conditions: c terminus: a fixed tail appended
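Note: lentivirally expressed fusions sorted by FACS into six bins by GFP to DsRed ratio, PSI derived from sequencing read proportions per bin multiplied by bin number.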

Protein stability index: each site, then its substitutions
E19: A 3.59
Y5: K 5.11 | Q 4.7 | A 3.53 | S 3.8 | F 3.11 | C 4.48 | V 4.36 | D 4.95 | N 4.51 | E 4.86 | P 4.3 | H 4.64 | G 4 | R 5.21 | L 4.47 | M 3.5 | T 5.24 | I 4.44
G7: E 4.32 | D 3.27 | W 2.06 | M 3.06 | T 3.53 | V 4.13 | I 4.23 | R 3.07 | Y 2.78 | A 3.32 | K 3.71 | L 2.96 | S 3.25 | H 2.07 | N 2.06 | C 2.95 | Q 2.82
G2: M 3.85 | W 4.3 | K 4.75 | E 4.89 | D 5.06 | Y 4.01 | S 2.96 | V 1.03 | A 2.87 | I 1.99 | T 2.65 | H 2.5 | F 3.98 | Q 2.49 | R 4.89 | C 2.52 | P 3.52 | N 4.4 | L 3.38
S11: R 2.53 | W 2.3 | D 2.57 | F 2.76 | Y 2.99 | C 2.95 | L 1.92 | M 2.13 | K 3.18 | Q 2.65 | H 3.12 | A 2.97 | N 2.21 | G 2.58 | P 3.1 | T 2.86 | I 2.56 | V 2.35 | E 2.02
R18: I 2.23 | G 2.54 | V 2.29 | E 1.8 | K 2.46 | T 2.32 | C 2.21 | N 1.96 | P 2.37 | Y 2.36 | F 2.73 | A 2.06 | S 1.83 | Q 2.45 | W 3.29 | M 2.89 | L 2.22
R14: D 2.31 | H 2.44 | E 2.66 | M 2.13 | Q 2.25 | S 2.19 | Y 2.02 | W 3.15 | N 2.89 | I 2.41 | T 2.42 | G 2.62 | K 3.03 | C 1.85 | A 1.88 | P 2.08 | L 2.27 | V 2.22 | F 2.83
F1: P 4.87 | A 4.83 | H 4.65 | I 4.57 | D 5.21 | T 5.16 | E 5.1 | G 4.79 | S 5.1 | N 4.44 | L 4.08 | R 5.35 | C 4.54 | K 4.99 | W 4.57 | V 5.33 | M 4.92 | Y 3.36 | Q 5.13
R10: G 3.15 | S 3 | E 3.36 | V 2.52 | P 2.82 | W 2.85 | C 2.45 | L 3.03 | H 3.62 | M 3.16 | T 2.41 | Y 2.12 | N 2.63 | Q 2.7 | D 2.75 | I 2.64 | F 2.31 | K 2.58 | A 2.9
R16: T 2.2 | L 1.62 | N 2.26 | P 1.63 | V 2.23 | Q 2.97 | E 2.86 | F 1.64 | K 2.46 | A 1.87 | D 2.15 | W 2.33 | C 1.97 | M 1.9 | G 2.52 | H 2.35 | I 1.96 | S 1.77
S17: A 2.85 | C 2.83 | T 3.45 | H 3.52 | N 3.93 | W 4.02 | F 3.51 | L 2.43 | P 2.6 | Q 2.89 | I 3.18 | Y 3.4 | M 3.93 | R 4.26 | V 2.86 | E 2.01 | G 3.1 | D 2.58 | K 2.81
S9: V 2.38 | P 2.56 | H 2.33 | M 1.69 | K 2.74 | W 2.17 | I 2.47 | Y 2.56 | Q 2.63 | E 2.73 | T 2.58 | G 3.16 | L 2.55 | R 3 | D 2.84 | N 2.82 | F 2.21 | A 2.39 | C 2.35
D4: E 3.79 | V 3.58 | W 2.16 | L 2.5 | Q 2.55 | G 1.9 | C 2.81 | F 3.2 | Y 3.63 | I 3.86 | R 3.34 | A 3.2 | P 3.59 | N 2.1 | M 2.29 | S 2.21 | K 3.44 | H 3.52 | T 3.38
P8: N 2.32 | Q 1.59 | R 1.44 | A 1.71 | D 1.92 | H 1.61 | V 1.42 | I 2.19 | G 2.3 | L 1.51 | S 2.38 | T 2.61 | C 2.48 | Y 2.99 | F 1.74 | K 1.58 | W 1.53 | E 2.56
E3: S 1.73 | N 3.63 | R 3.46 | W 3.63 | K 3.96 | I 4.08 | V 4.08 | H 4.21 | F 4.87 | M 3.83 | D 2.86 | P 3.41 | Q 4.38 | C 3.26 | L 4.43 | A 3.9 | T 3.75 | Y 4.08 | G 2.27
R12: T 2.27 | I 1.95 | D 1.86 | K 3.19 | V 2.11 | E 2.58 | M 2.03 | F 2.18 | A 2.13 | P 2.39 | L 1.48 | S 2.1 | G 2.16 | Y 2.58 | H 2.51 | Q 2.31 | N 2.52 | W 2.44
H13: S 2.52 | W 1.93 | Q 2.48 | P 2.96 | F 2.64 | G 2.46 | D 2.16 | L 2.18 | T 2.7 | E 2.21 | C 2.29 | I 2.78 | Y 2.52 | A 2.16 | M 3.25 | N 2.55 | V 2.16 | K 3.53
R15: S 2.04 | H 2.18 | K 3.27 | Y 2.69 | I 2.43 | G 1.98 | Q 1.98 | M 3.55 | L 2.23 | N 2.47 | C 1.57 | P 2.54 | A 2.18 | E 1.95 | W 2.11 | T 1.91 | D 2.34 | V 2.1 | F 1.85
Y6: C 4.75 | D 4.59 | L 3.98 | N 4.47 | E 4.84 | F 2.4 | S 4.96 | M 4.17 | Q 5.36 | H 4.07 | T 4.27 | W 2.52 | G 5.15 | K 5.1 | V 4.02 | R 4.67 | P 4.78 | I 4.38 | A 4.61

Source: the supplement of paper PMC10567573
